# US20120288511A1 (INDIANA UNIVERSITY RESEARCH AND TECHNOLOGY, published 2012)
# Like-named read-outs stand apart in the source and are kept apart here. Non-standard residues stand in square brackets, D forms with d. No end group written: not given here. Aib = CC(C)(N)C(=O)O
# Key:
# Assay in all cases: cell-based or functional assay
# GLP-1 receptor [1] = molecular target: T1, GLP-1 receptor (human, UniProt P43220 24-463)
# glucagon receptor [2] = molecular target: T2, glucagon receptor (human, UniProt P47871 26-477)
# GLP-1 receptor [3] = molecular target: T1, GLP-1 receptor; remark: listed apart in the source
# glucagon receptor [4] = molecular target: T2, glucagon receptor; remark: listed apart in the source
# GLP-1 receptor [5] = molecular target: T1, GLP-1 receptor; remark: listed apart in the source
# glucagon receptor [6] = molecular target: T2, glucagon receptor; remark: listed apart in the source
# GLP-1 receptor [7] = molecular target: T1, GLP-1 receptor; remark: listed apart in the source
# glucagon receptor [8] = molecular target: T2, glucagon receptor; remark: listed apart in the source
# GLP-1 receptor [9] = molecular target: T1, GLP-1 receptor; remark: listed apart in the source
# glucagon receptor [10] = molecular target: T2, glucagon receptor; remark: listed apart in the source
# GLP-1 receptor [11] = molecular target: T1, GLP-1 receptor; remark: listed apart in the source
# glucagon receptor [12] = molecular target: T2, glucagon receptor; remark: listed apart in the source
# GLP-1 receptor [13] = molecular target: T1, GLP-1 receptor; remark: listed apart in the source
# glucagon receptor [14] = molecular target: T2, glucagon receptor; remark: listed apart in the source
# GLP-1 receptor [15] = molecular target: T1, GLP-1 receptor; remark: listed apart in the source
# glucagon receptor [16] = molecular target: T2, glucagon receptor; remark: listed apart in the source
# T2 sequence (P47871 26-477): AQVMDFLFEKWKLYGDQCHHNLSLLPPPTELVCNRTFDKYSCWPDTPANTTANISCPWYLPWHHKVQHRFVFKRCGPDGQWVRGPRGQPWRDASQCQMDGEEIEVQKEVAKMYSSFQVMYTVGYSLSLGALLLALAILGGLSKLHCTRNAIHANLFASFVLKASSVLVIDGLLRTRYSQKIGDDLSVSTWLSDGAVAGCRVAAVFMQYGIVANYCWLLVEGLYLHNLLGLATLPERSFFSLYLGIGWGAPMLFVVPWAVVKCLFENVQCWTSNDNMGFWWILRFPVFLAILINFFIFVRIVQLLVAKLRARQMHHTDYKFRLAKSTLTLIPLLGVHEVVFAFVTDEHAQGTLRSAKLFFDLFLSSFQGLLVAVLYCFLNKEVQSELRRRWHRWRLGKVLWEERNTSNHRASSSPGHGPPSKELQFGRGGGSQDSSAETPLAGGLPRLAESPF
binder,measurement,setting,value
HSQGTFTSDKSKYLDERAAQDFVQWLLDT-NH2 (not fully specified; also: position 2 Aib or D-Ser) [Glucagon Analog 51],% Relative Activity vs native GLP-1,GLP-1 receptor [1],949%
same,EC50 (cAMP luciferase reporter),GLP-1 receptor [1],0.004 nM
same,% Relative Activity vs native glucagon,glucagon receptor [2],314%
same,EC50 (cAMP luciferase reporter),glucagon receptor [2],0.004 nM
same,% Relative Activity vs native GLP-1,GLP-1 receptor [3],949%
same,EC50 (cAMP luciferase reporter),GLP-1 receptor [3],0.0039 nM
same,% Relative Activity vs native glucagon,glucagon receptor [4],314%
same,EC50 (cAMP luciferase reporter),glucagon receptor [4],0.0035 nM
same,EC50 (cAMP luciferase reporter),GLP-1 receptor [5],0.0039 nM
same,EC50 (cAMP luciferase reporter),glucagon receptor [6],0.0035 nM
"HSQGTFTSDKSKYLDERAAQDFVC(PEG 40 kDa)WLLDT-NH2 (not fully specified (residue 10); also: Lys10 acylated, acyl group not given here) [Glucagon Analog 29]",% Relative Activity vs native GLP-1,GLP-1 receptor [1],43%
same,EC50 (cAMP luciferase reporter),GLP-1 receptor [1],0.084 nM
same,% Relative Activity vs native glucagon,glucagon receptor [2],40%
same,EC50 (cAMP luciferase reporter),glucagon receptor [2],0.085 nM
same,EC50 (cAMP luciferase reporter),GLP-1 receptor [5],0.084 nM
same,EC50 (cAMP luciferase reporter),glucagon receptor [6],0.085 nM
same,EC50 (cAMP luciferase reporter),GLP-1 receptor [7],0.084 nM
same,percent in parentheses (not explained),GLP-1 receptor [7],16%
same,EC50 (cAMP luciferase reporter),glucagon receptor [8],0.085 nM
same,percent in parentheses (not explained),glucagon receptor [8],74%
"HSQGTFTSDKSKYLDEQAAKEFICWLLDT (also: DPP-IV-resistant residue at position 1 or 2, not given here) [Glucagon Analog 53]",% Relative Activity vs native GLP-1,GLP-1 receptor [9],708%
same,EC50 (cAMP luciferase reporter),GLP-1 receptor [9],0.012 nM
same,% Relative Activity vs native glucagon,glucagon receptor [10],411%
same,EC50 (cAMP luciferase reporter),glucagon receptor [10],0.009 nM
HSQGTFTSDKSKYLDEQAAKEFICWLLDTG (not fully specified) [Glucagon Analog 55],% Relative Activity vs native GLP-1,GLP-1 receptor [9],16%
same,EC50 (cAMP luciferase reporter),GLP-1 receptor [9],0.516 nM
same,% Relative Activity vs native glucagon,glucagon receptor [10],7%
same,EC50 (cAMP luciferase reporter),glucagon receptor [10],0.55 nM
HSQGTFTSDKSKYLDEQAAKEFICWLLDTGG (not fully specified) [Glucagon Analog 56],% Relative Activity vs native GLP-1,GLP-1 receptor [9],125%
same,EC50 (cAMP luciferase reporter),GLP-1 receptor [9],0.068 nM
same,% Relative Activity vs native glucagon,glucagon receptor [10],272%
same,EC50 (cAMP luciferase reporter),glucagon receptor [10],0.018 nM
HAQGTFTSDKSKYLDERAAQDFVCWLLDT (not fully specified (C-terminus)) [Glucagon Analog 59],% Relative Activity vs native GLP-1,GLP-1 receptor [1],484%
same,EC50 (cAMP luciferase reporter),GLP-1 receptor [1],0.019 nM
same,% Relative Activity vs native glucagon,glucagon receptor [2],490%
same,EC50 (cAMP luciferase reporter),glucagon receptor [2],0.01 nM
KAHSEGTFTSDYSKYLDSRRAQDFVQWLMNT (not fully specified; also: further groups not given here) [Peptide 12],EC50 (cAMP luciferase reporter),GLP-1 receptor [11],41.7 nM
same,EC50 (cAMP luciferase reporter),glucagon receptor [12],85.9 nM
HSQGTFTSDYSKYLDEEAVRLFIEWLMNT-NH2 (not fully specified (residue 2)) [Glucagon Analog A],EC50 (cAMP luciferase reporter),GLP-1 receptor [13],0.009 nM
same,EC50 (cAMP luciferase reporter),glucagon receptor [14],0.061 nM
HSQGTFTSDYSKYLDEQAAKEFIAWLMNT-NH2 (not fully specified (residue 2)) [Glucagon Analog B],EC50 (cAMP luciferase reporter),GLP-1 receptor [13],0.014 nM
same,EC50 (cAMP luciferase reporter),glucagon receptor [14],0.072 nM
H[Aib]QGTFTSDYSKYLDEEAVRLFIEWLMNT-NH2 [Glucagon Analog C],EC50 (cAMP luciferase reporter),GLP-1 receptor [13],0.006 nM
same,EC50 (cAMP luciferase reporter),glucagon receptor [14],0.17 nM
H[Aib]QGTFTSDYSKYLDEQAAKEFIAWLMNT-NH2 [Glucagon Analog D],EC50 (cAMP luciferase reporter),GLP-1 receptor [13],0.02 nM
same,EC50 (cAMP luciferase reporter),glucagon receptor [14],0.85 nM
KAHSEGTFTSDYSKYLDSRRAQDFVQWLMNT (not fully specified; also: further groups not given here) [Peptide 13],EC50 (cAMP luciferase reporter),GLP-1 receptor [11],14.3 nM
same,EC50 (cAMP luciferase reporter),glucagon receptor [12],30.7 nM
"HSQGTFTSDYSKYLDEKRAKEFVQWLMNT-NH2 (also: DPP-IV-protecting residue at position 1 or 2: D-Ser, Aib or Dmia, salt bridge Lys17/Glu21 plus salt bridge 16/20 or α,α-disubstituted residue at 16) [Glucagon Analog 20]",EC50 (cAMP luciferase reporter),GLP-1 receptor [15],0.284 nM
same,EC50 (cAMP luciferase reporter),glucagon receptor [16],0.054 nM
same,EC50 (cAMP luciferase reporter),GLP-1 receptor [7],0.284 nM
same,EC50 (cAMP luciferase reporter),glucagon receptor [8],0.054 nM
HSQKTFTEDYSKYLDSRRAQDFVQWLMNT (not fully specified; also: further groups not given here) [Peptide 17],EC50 (cAMP luciferase reporter),GLP-1 receptor [11],148 nM
same,EC50 (cAMP luciferase reporter),glucagon receptor [12],862 nM
"HSQGTFTSDYSKYLDEKRAKEFVC(PEG 40 kDa)WLMNT-NH2 (also: DPP-IV-protecting residue at position 1 or 2 not given here, non-covalent salt bridge Lys17/Glu21) [Glucagon Analog 24]",% Relative Activity vs native GLP-1,GLP-1 receptor [15],5%
same,EC50 (cAMP luciferase reporter),GLP-1 receptor [15],1.58 nM
same,% Relative Activity vs native glucagon,glucagon receptor [16],7%
same,EC50 (cAMP luciferase reporter),glucagon receptor [16],0.676 nM
HSQGTFTSDYSKYLDKRRAEDFVQWLMNT (not fully specified; also: further groups not given here) [Peptide 3],EC50 (cAMP luciferase reporter),GLP-1 receptor [11],1.15 nM
same,EC50 (cAMP luciferase reporter),glucagon receptor [12],0.34 nM
